Source: patent US20220288204A1, “DOSAGE AND ADMINISTRATION OF ANTI-ERBB3 (HER3) MONOCLONAL ANTIBODIES TO TREAT TUMORS ASSOCIATED WITH NEUREGULIN 1 (NRG1) GENE FUSIONS” (ELEVATION ONCOLOGY, INC., priority 2021, published 2022)

Legend:
MDA-MB-175-VII cells = test: Caspase 3/7 enzymatic activity in cell homogenates (apoptosis); assay type: cell-based, human
Procedure: (§1) MCF-7 cells were treated with the indicated concentrations of NRG1-b1 for 10 minutes, and then cell extracts were prepared and subjected to Western blotting for the indicated phosphorylated (p) or total (t) proteins (FIG. 2A). […] Data were analyzed by nonlinear regression using GraphPad Prism 8. There were four replicates of each condition and data represent the mean±SD. […] Cells were counted on the days indicated on the graph. Results represent the mean±SD of duplicates of each condition in one representative experiment. MDA-MB-175-VII (FIG. 2D) and LUAD-0061AS3 (FIG. 2E) cells were treated with the indicated concentrations of inhibitors for 48 hours, and then caspase 3/7 enzymatic activity was measured in cell homogenates. Carfilzomib (20S proteasome inhibitor) was used as a positive control for apoptosis. Results are the mean±SEM of three independent experiments in which each condition was assayed in three replicate determinations. The absence of an error bar for any data point indicates an error value too small to be represented on the scale used.
(§2) As a positive control for activation of caspase 3/7, 1 μmol/L carfilzomib was used.

LUAD-0061AS3 cells = test: as above; assay type: cell-based, human
Procedure: as §1, §2

OV-10-0050 PDX tumors = test: HGSOC ovarian PDX model efficacy (CLU-NRG1); assay type: in vivo, mice; set-up: average tumor volume at the time of the last treatment: unit not given beside the values; settings: afatinib 5 mg/kg once daily, day 27
Source text: IHC characterization of the OV-10-0050 PDX model (FIG. 6A). H&E staining, WT1, and TP53 IHC (left to right). […] (FIG. 6B). Treatment was terminated on day 27 and animals were monitored for tumor regrowth until tumors reached maximum allowable size or until 90 days after treatment initiation. Results represent the mean tumor volume ±SEM. A zoom-in view on tumor volumes during the last 40 days of monitoring of seribantumab-treated groups (right). […] Change in the volume of individual tumors (day 27 vs. volume at start of treatment) (FIG. 6C).
Crushed PDX tumor samples were mixed with Matrigel (50%) and injected into the subcutaneous flank of 6-week-old female NSG (LUAD-0061AS3) or Balb/c nude (OV-10-0050) mice. When tumors reached approximately 100-150 mm3, mice were randomly assigned to groups of 5-8 and treatment was commenced. There were 2 mice per group with bilateral flank tumors for the protein phosphorylation/expression study in the LUAD-0061AS3 PDX model. Drugs were administered once, and then tumors were collected at 2, 24, and 168 hours posttreatment. Afatinib was administered by oral gavage once daily as a suspension (in 0.5% methylcellulose-0.4% Tween-80) on a 5-days-on and 2-days-off schedule. […] Mice were observed daily throughout the treatment period for signs of morbidity and mortality. Tumor length and width and animal weights were measured twice weekly. Tumor volume was calculated using the empirical formula V=length×width 2×0.52. The percentage change in tumor volume of each tumor was calculated using the formula [(V2−V1)/V1)]×100, where V1 is the starting tumor volume and V2 is the final tumor volume.
RT-PCR confirmed the presence of the CLU-NRG1 fusion. Xenograft tissue morphology and IHC markers (positive for WT1 and strong nuclear staining for TP53) were consistent with HGSOC histology (FIG. 6A; Kobel M, et al., Int. J. Gynecol. Pathol. 2016; 35:430-41). […] As with the above experiments in the NSCLC PDX model, the doses of seribantumab used here were lower than the dose that is used in patients. Treatment was terminated at day 27 and tumor growth was monitored for an additional 63 days (90 days after initiation of treatment or once tumors reached the maximum allowable size). The tumor volume as a function of time is illustrated in FIG. 6B, and the AUC was computed for each group to compare tumor volumes between groups at the last date of treatment. […] Forty-one days after treatment began, mice bearing vehicle- and afatinib-treated tumors were sacrificed because of the high tumor burden.

human ERBB3 (HER3) = human ERBB3 (HER3) (human, UniProt P21860 20-1342); test: cell-based or functional assay
[1] = 1 μmol/L carfilzomib, positive control

Sequence of human ERBB3 (HER3) (P21860 other isoform, or with tags, fused parts or gaps): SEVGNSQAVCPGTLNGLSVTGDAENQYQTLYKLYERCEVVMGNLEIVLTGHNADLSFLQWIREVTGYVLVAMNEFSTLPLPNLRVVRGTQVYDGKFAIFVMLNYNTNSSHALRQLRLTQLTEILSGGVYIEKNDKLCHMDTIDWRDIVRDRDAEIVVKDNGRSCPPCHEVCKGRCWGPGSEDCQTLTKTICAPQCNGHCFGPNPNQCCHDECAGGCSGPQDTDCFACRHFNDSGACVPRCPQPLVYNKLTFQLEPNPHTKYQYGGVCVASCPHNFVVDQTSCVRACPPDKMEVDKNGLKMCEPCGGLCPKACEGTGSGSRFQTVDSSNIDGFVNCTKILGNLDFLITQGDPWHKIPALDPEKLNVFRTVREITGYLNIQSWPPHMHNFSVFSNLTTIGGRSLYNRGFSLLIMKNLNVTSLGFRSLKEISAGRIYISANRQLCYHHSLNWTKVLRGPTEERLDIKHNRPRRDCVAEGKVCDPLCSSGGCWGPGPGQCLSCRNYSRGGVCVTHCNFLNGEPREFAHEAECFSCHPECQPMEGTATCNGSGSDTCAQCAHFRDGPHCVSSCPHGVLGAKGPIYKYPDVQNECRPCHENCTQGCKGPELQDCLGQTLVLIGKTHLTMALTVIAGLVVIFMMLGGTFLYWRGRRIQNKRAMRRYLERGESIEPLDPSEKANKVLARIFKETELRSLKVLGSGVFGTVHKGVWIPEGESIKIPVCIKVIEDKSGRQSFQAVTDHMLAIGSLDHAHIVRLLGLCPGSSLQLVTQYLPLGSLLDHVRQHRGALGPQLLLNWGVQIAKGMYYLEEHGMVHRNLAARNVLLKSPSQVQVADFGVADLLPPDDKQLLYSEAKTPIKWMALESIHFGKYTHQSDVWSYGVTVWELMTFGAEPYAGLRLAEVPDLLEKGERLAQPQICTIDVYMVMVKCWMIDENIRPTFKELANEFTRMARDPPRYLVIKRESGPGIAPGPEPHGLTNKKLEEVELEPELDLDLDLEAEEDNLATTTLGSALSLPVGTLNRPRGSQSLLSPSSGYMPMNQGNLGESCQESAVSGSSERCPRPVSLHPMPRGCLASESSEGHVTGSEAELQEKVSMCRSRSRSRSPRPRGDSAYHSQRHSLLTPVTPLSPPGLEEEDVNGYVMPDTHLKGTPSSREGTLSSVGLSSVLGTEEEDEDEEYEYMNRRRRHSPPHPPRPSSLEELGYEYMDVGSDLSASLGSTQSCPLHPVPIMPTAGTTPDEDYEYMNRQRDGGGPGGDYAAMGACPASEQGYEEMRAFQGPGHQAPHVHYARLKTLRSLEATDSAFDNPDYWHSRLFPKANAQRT

For `CN(C)C/C=C/C(=O)Nc1cc2c(Nc3ccc(F)c(Cl)c3)ncnc2cc1O[C@H]1CCOC1` [afatinib], the “caspase 3/7 activity” value (MDA-MB-175-VII cells; 10 μmol/L, 48 hours) was 14.1±3.6 fold above control, the “caspase 3/7 activity” value (LUAD-0061AS3 cells; highest concentration used, 48 hours) was 3.3±0.1 fold above control and the “average tumor volume at the time of the last treatment” value (OV-10-0050 PDX tumors) was 786.4±190.5.

With `CC(C)C[C@H](NC(=O)[C@H](CCc1ccccc1)NC(=O)CN1CCOCC1)C(=O)N[C@@H](Cc1ccccc1)C(=O)N[C@@H](CC(C)C)C(=O)[C@@]1(C)CO1` [carfilzomib] the “caspase 3/7 activity” value (MDA-MB-175-VII cells; [1]) was 16.6±1.9 fold above control and the “caspase 3/7 activity” value (LUAD-0061AS3 cells; [1]) was 5.8±1.3 fold above control.

B1: seribantumab (antibody, human IgG2, lambda, V domains shown)
VH: EVQLLESGGGLVQPGGSLRLSCAASGFTFSHYVMAWVRQAPGKGLEWVSSISSSGGWTLYADSVKGRFTISRDNSKNTLYLQMNSLRAEDTAVYYCTRGLKMATIFDYWGQGTLVTVSS
VL: QSALTQPASVSGSPGQSITISCTGTSSDVGSYNVVSWYQQHPGKAPKLIIYEVSQRPSGVSNRFSGSKSGNTASLTISGLQTEDEADYYCCSYAGSSIFVIFGGGTKVTVLG
For B1, the “IC50 for growth inhibition, HBECp53 cells (nontumor, no NRG1 fusion, control), 96 h, AlamarBlue viability” value (human ERBB3 (HER3)) was 203 µM, the “IC50 for growth inhibition, LUAD-0061AS3 cells (SLC3A2-NRG1 fusion), 96 h, AlamarBlue viability” value (human ERBB3 (HER3)) was 1.4 µM and the “IC50 for growth inhibition, MCF-7 cells (no NRG1 fusion, control), 96 h, AlamarBlue viability” value (human ERBB3 (HER3)) was 45.2 µM. For the same molecule, the “IC50 for growth inhibition, MDA-MB-175-VII cells (DOC4-NRG1 fusion), 96 h, AlamarBlue viability” value (human ERBB3 (HER3)) was 0.02 µM, the “caspase 3/7 activity, LUAD-0061AS3 cells, highest concentration used, 48 h” value (human ERBB3 (HER3)) was 4 fold above control and the “caspase 3/7 activity, MDA-MB-175-VII cells, 10 µmol/L, 48 h” value (human ERBB3 (HER3)) was 12.7 fold above control.
